Laboratory results from paper PMC4268493.
pKd: −log10 of the molar value.

Biological target: TNF-FLAG (UniProt P01375)
Experiment: SPR

UniProt P01375, sequence (P01375 whole entry): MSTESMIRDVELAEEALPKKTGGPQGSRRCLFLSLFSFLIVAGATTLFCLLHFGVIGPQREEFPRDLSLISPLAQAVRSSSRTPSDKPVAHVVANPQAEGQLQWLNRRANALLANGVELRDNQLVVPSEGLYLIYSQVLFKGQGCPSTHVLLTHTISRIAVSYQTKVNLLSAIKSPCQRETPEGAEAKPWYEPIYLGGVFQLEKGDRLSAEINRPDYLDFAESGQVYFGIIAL

pKd: 7.81
Substance: Δ6-TNFR1-Fc fusion protein (from UniProt P19438-4 30-183)
